Publication doi:10.1101/2021.02.24.432656 (bioRxiv, 2021)

Molecular target: T1, bacterially purified STAT1 recombinant protein (human, UniProt P42224 1-750)
T1 sequence: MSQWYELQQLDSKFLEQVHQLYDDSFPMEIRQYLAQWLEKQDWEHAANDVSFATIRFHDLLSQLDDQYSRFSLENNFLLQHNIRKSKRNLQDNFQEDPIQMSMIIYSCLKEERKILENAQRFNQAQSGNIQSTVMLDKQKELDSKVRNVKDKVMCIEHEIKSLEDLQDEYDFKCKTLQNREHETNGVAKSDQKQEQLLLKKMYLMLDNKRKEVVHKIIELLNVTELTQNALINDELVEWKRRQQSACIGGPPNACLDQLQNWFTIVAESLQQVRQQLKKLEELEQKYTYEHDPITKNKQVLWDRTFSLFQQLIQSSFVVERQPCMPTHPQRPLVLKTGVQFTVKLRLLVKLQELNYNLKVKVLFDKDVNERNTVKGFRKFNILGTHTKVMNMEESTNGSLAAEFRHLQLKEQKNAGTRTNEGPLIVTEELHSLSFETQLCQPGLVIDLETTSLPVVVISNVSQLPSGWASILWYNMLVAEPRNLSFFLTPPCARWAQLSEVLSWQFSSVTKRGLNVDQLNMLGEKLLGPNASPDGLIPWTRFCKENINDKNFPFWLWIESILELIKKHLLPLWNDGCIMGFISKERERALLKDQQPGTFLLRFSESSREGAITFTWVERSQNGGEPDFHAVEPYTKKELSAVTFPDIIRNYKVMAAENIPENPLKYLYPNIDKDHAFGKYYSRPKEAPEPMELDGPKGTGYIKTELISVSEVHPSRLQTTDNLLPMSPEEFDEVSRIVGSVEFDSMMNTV
Experiment: pull-down

B1: GST-GFP fused with the C-terminal peptide of ORF6 wild type (49-61 amino acids) (domain or fragment)
chain: YSQLDEEQPMEID
binding result: binds
